For this assay, the target named is PA domain 3 (Bacillus anthracis). The assay can be described thus: ELISA. A general note: ELISA stands for enzyme-linked immunosorbent assay.

By EC50 is commonly meant the concentration giving half of the maximal effect.

PA domain 3 (Bacillus anthracis), sequence (P13423 517-624 limits assumed): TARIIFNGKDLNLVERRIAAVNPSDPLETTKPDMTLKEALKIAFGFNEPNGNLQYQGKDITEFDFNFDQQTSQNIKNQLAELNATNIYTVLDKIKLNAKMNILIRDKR

B1: antibody 8A7 (antibody, V domains shown)
VH: EVQLLESGGGLVQPGGSLRLSCAASGFSFSSYAMSWVRQAPGTGLEWVSGISGSGDNIYYADSVKGRFTISRDNSKNTVYMQMNSLRAEDTALYYCAKFSGHYGSGSFHLPEYFQHWGQGTLVTVSS
VL: DIQMTQSPATLSASIGDRVTITCRASQSISSWLAWYQQKPGKAPKVLIYKASRLESGVPSRFSGSGSGTEFTLTISSLQPDDFATYYCQQYNTYWTFGQGTKVEIIR
As to B1, the EC50 came out at 60 pM.

The values are drawn from publication PMC12502762.
